Experimental data taken from patent US20140087995A1 (published 2014).
Numbered stars: 1 amine (or outer) side, 2 acyl side, 3 side chain; on linkers, the order of the positions; unused ones are H or OH. Bridge positions count the residues as written; N and C are the ends. Side chains are listed from the residue outwards. Ends that are not written are not given here. * marks the point of attachment. C20 diacid = O=C(O)CCCCCCCCCCCCCCCCCCC(=O)*; C18 diacid = O=C(O)CCCCCCCCCCCCCCCCC(=O)*; C16 diacid = O=C(O)CCCCCCCCCCCCCCC(=O)*; γGlu = O=C(O)[C@H](CCC(=O)[*:2])N[*:1]; C14 diacid = O=C(O)CCCCCCCCCCCCC(=O)*

T1: human amylin receptor (Amylin 3(a) receptor: human calcitonin receptor co-expressed with RAMP-3) (human, UniProt P30988 25-474; O60896 24-148, limits assumed)
T1 construct: whole, on cells; Used as cell membranes prepared from the Amylin 3(a)/CRE-luc BHK cells (Assay V); the complex is called the human amylin receptor; also called hAmylin-R; hAmylinR
T1 sequence (looked up) 1: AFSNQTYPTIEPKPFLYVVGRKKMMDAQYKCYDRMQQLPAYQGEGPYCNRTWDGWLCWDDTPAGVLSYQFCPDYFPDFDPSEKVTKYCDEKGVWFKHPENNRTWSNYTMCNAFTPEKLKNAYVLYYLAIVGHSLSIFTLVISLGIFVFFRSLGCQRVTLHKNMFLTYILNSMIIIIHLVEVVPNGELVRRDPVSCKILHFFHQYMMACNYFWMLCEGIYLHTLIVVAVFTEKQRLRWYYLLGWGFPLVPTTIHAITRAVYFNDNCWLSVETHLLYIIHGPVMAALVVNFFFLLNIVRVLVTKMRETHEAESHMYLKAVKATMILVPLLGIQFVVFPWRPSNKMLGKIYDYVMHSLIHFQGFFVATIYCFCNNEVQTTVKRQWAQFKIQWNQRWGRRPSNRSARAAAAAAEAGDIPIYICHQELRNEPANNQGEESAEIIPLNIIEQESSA
T1 sequence (looked up) 2: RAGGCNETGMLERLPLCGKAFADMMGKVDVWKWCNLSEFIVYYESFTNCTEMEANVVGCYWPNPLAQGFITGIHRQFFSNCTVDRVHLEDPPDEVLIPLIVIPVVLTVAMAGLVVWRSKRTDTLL


Target: T1, human amylin receptor (Amylin 3(a) …)
Assay: SPA competition binding, displacement of 125I-rat amylin from membranes of BHK cells with human calcitonin receptor + RAMP-3 (Assay V)
Method: The binding assay was performed using scintillation proximity assay (SPA) beads (RPNQ0001) from PerkinElmer and cell membranes from the Amylin 3(a)/CRE-luc cells (as described in Assay (II)) were used. Membranes were prepared in the following way; the cells were rinsed with PBS and incubated with Versene for approximately 5 min before harvesting. The cells were flushed with PBS and the cell-suspension was centrifuged for 5 min at 1000 rpm. Cells were homogenized (ultrathurrax) in a buffer containing 20 mM Na-HEPES and 10 mM EDTA (pH 7.4) and centrifuged at 20.000 rpm for 15 min. The resulting pellet was resuspended, homogenized and centrifuged (20.000 rpm, 15 min) in a buffer containing 20 mM Na-HEPES and 0.1 mM EDTA (pH 7.4, buffer 2). The resulting pellet was resuspended in buffer 2 and protein concentration was measured (BCA protein Assay, Pierce). The homogenate was kept cold during the whole procedure. The membranes were kept at −80° C. until use. The assay was performed in a 384 well Optiplate (PerkinElmer) in a total volume of 40 ul. Membranes were mixed with SPA beads. Final concentration of membranes 35 ng/μL final and SPA beads was 0.05 mg/well. Test-compounds were dissolved in DMSO and further diluted in assay buffer (50 mM Hepes, pH 7.4, 1 mM CaCl2, 5 mM MgCl₂, 0.1% OA and 0.02% Tween20). […] The final mixture was incubated with shaking at 400 rpm for 120 min at 25° C. prior to centrifugation (1500 rpm, 10 min). Samples were analyzed on TopCounter™ (Packard). The IC₅₀ was calculated using (one site binding competition analysis) GraphPad Prism5 as a measure of receptor affinity.

IC50	Binder
1.01 nM	{C20 diacid-γGlu}-GRCNTATCATQRLAHFLRHSSPNFGAIPSSTNVGHNTY-NH2 (disulfide 3-8; SMILES CC[C@H](C)[C@H](NC(=O)[C@H](C)NC(=O)CNC(=O)[C@H](Cc1ccccc1)NC(=O)[C@H](CC(N)=O)NC(=O)[C@@H]1CCCN1C(=O)[C@H](CO)NC(=O)[C@H](CO)NC(=O)[C@H](Cc1c[nH]cn1)NC(=O)[C@H](CCCNC(=N)N)NC(=O)[C@H](CC(C)C)NC(=O)[C@H](Cc1ccccc1)NC(=O)[C@H](Cc1c[nH]cn1)NC(=O)[C@H](C)NC(=O)[C@H](CC(C)C)NC(=O)[C@H](CCCNC(=N)N)NC(=O)[C@H](CCC(N)=O)NC(=O)[C@@H](NC(=O)[C@H](C)NC(=O)[C@@H]1CSSC[C@H](NC(=O)[C@H](CCCNC(=N)N)NC(=O)CNC(=O)CC[C@H](NC(=O)CCCCCCCCCCCCCCCCCCC(=O)O)C(=O)O)C(=O)N[C@@H](CC(N)=O)C(=O)N[C@@H]([C@@H](C)O)C(=O)N[C@@H](C)C(=O)N[C@@H]([C@@H](C)O)C(=O)N1)[C@@H](C)O)C(=O)N1CCC[C@H]1C(=O)N[C@@H](CO)C(=O)N[C@@H](CO)C(=O)N[C@H](C(=O)N[C@@H](CC(N)=O)C(=O)N[C@H](C(=O)NCC(=O)N[C@@H](Cc1c[nH]cn1)C(=O)N[C@@H](CC(N)=O)C(=O)N[C@H](C(=O)N[C@@H](Cc1ccc(O)cc1)C(N)=O)[C@@H](C)O)C(C)C)[C@@H](C)O, modifications are with respect to human amylin; also called compound 100)
0.348 nM	{C20 diacid-γGlu}-GRCNTATCATQRLAHFLRHSSPNFGAIPSSTNVGSNTY-NH2 (disulfide 3-8; SMILES CC[C@H](C)[C@H](NC(=O)[C@H](C)NC(=O)CNC(=O)[C@H](Cc1ccccc1)NC(=O)[C@H](CC(N)=O)NC(=O)[C@@H]1CCCN1C(=O)[C@H](CO)NC(=O)[C@H](CO)NC(=O)[C@H](Cc1c[nH]cn1)NC(=O)[C@H](CCCNC(=N)N)NC(=O)[C@H](CC(C)C)NC(=O)[C@H](Cc1ccccc1)NC(=O)[C@H](Cc1c[nH]cn1)NC(=O)[C@H](C)NC(=O)[C@H](CC(C)C)NC(=O)[C@H](CCCNC(=N)N)NC(=O)[C@H](CCC(N)=O)NC(=O)[C@@H](NC(=O)[C@H](C)NC(=O)[C@@H]1CSSC[C@H](NC(=O)[C@H](CCCNC(=N)N)NC(=O)CNC(=O)CC[C@H](NC(=O)CCCCCCCCCCCCCCCCCCC(=O)O)C(=O)O)C(=O)N[C@@H](CC(N)=O)C(=O)N[C@@H]([C@@H](C)O)C(=O)N[C@@H](C)C(=O)N[C@@H]([C@@H](C)O)C(=O)N1)[C@@H](C)O)C(=O)N1CCC[C@H]1C(=O)N[C@@H](CO)C(=O)N[C@@H](CO)C(=O)N[C@H](C(=O)N[C@@H](CC(N)=O)C(=O)N[C@H](C(=O)NCC(=O)N[C@@H](CO)C(=O)N[C@@H](CC(N)=O)C(=O)N[C@H](C(=O)N[C@@H](Cc1ccc(O)cc1)C(N)=O)[C@@H](C)O)C(C)C)[C@@H](C)O, modifications are with respect to human amylin; also called compound 99)
0.121 nM	K([γGlu-γGlu-C20 diacid])CNTATCATQRLAEFLRHSSPNFGAIPSSTNVGPETY-NH2 (disulfide 2-7 (inferred), modifications are with respect to human amylin)
0.382 nM	K([γGlu-C18 diacid])CNTATCATQRLANFLRHSSPNFGAIPSSTNVGHNTY-NH2 (disulfide 2-7; N-terminus assumed; SMILES CC[C@H](C)[C@H](NC(=O)[C@H](C)NC(=O)CNC(=O)[C@H](Cc1ccccc1)NC(=O)[C@H](CC(N)=O)NC(=O)[C@@H]1CCCN1C(=O)[C@H](CO)NC(=O)[C@H](CO)NC(=O)[C@H](Cc1c[nH]cn1)NC(=O)[C@H](CCCNC(=N)N)NC(=O)[C@H](CC(C)C)NC(=O)[C@H](Cc1ccccc1)NC(=O)[C@H](CC(N)=O)NC(=O)[C@H](C)NC(=O)[C@H](CC(C)C)NC(=O)[C@H](CCCNC(=N)N)NC(=O)[C@H](CCC(N)=O)NC(=O)[C@@H](NC(=O)[C@H](C)NC(=O)[C@@H]1CSSC[C@H](NC(=O)[C@@H](N)CCCCNC(=O)CC[C@H](NC(=O)CCCCCCCCCCCCCCCCC(=O)O)C(=O)O)C(=O)N[C@@H](CC(N)=O)C(=O)N[C@@H]([C@@H](C)O)C(=O)N[C@@H](C)C(=O)N[C@@H]([C@@H](C)O)C(=O)N1)[C@@H](C)O)C(=O)N1CCC[C@H]1C(=O)N[C@@H](CO)C(=O)N[C@@H](CO)C(=O)N[C@H](C(=O)N[C@@H](CC(N)=O)C(=O)N[C@H](C(=O)NCC(=O)N[C@@H](Cc1c[nH]cn1)C(=O)N[C@@H](CC(N)=O)C(=O)N[C@H](C(=O)N[C@@H](Cc1ccc(O)cc1)C(N)=O)[C@@H](C)O)C(C)C)[C@@H](C)O, modifications are with respect to human amylin) [N^ε1-[(4S)-4-carboxy-4-(17-carboxyheptadecanoylamino)butanoyl]-[Arg17,Pro21,Pro27,His34]-h-amylin]
1.04 nM	K([γGlu-C14 diacid])CNTATCATQRLANFLRHSSPNFGAIPSSTNVGHNTY-NH2 (disulfide 2-7; N-terminus assumed; SMILES CC[C@H](C)[C@H](NC(=O)[C@H](C)NC(=O)CNC(=O)[C@H](Cc1ccccc1)NC(=O)[C@H](CC(N)=O)NC(=O)[C@@H]1CCCN1C(=O)[C@H](CO)NC(=O)[C@H](CO)NC(=O)[C@H](Cc1c[nH]cn1)NC(=O)[C@H](CCCNC(=N)N)NC(=O)[C@H](CC(C)C)NC(=O)[C@H](Cc1ccccc1)NC(=O)[C@H](CC(N)=O)NC(=O)[C@H](C)NC(=O)[C@H](CC(C)C)NC(=O)[C@H](CCCNC(=N)N)NC(=O)[C@H](CCC(N)=O)NC(=O)[C@@H](NC(=O)[C@H](C)NC(=O)[C@@H]1CSSC[C@H](NC(=O)[C@@H](N)CCCCNC(=O)CC[C@H](NC(=O)CCCCCCCCCCCCC(=O)O)C(=O)O)C(=O)N[C@@H](CC(N)=O)C(=O)N[C@@H]([C@@H](C)O)C(=O)N[C@@H](C)C(=O)N[C@@H]([C@@H](C)O)C(=O)N1)[C@@H](C)O)C(=O)N1CCC[C@H]1C(=O)N[C@@H](CO)C(=O)N[C@@H](CO)C(=O)N[C@H](C(=O)N[C@@H](CC(N)=O)C(=O)N[C@H](C(=O)NCC(=O)N[C@@H](Cc1c[nH]cn1)C(=O)N[C@@H](CC(N)=O)C(=O)N[C@H](C(=O)N[C@@H](Cc1ccc(O)cc1)C(N)=O)[C@@H](C)O)C(C)C)[C@@H](C)O, modifications are with respect to human amylin) [N^ε1-[(4S)-4-carboxy-4-(13-carboxytridecanoylamino)butanoyl]-[Arg17,Pro21,Pro27,His34]-h-amylin]
0.58 nM	K([γGlu-C16 diacid])CNTATCATQRLANFLRHSSPNFGAIPSSTNVGHNTY-NH2 (disulfide 2-7; N-terminus assumed; SMILES CC[C@H](C)[C@H](NC(=O)[C@H](C)NC(=O)CNC(=O)[C@H](Cc1ccccc1)NC(=O)[C@H](CC(N)=O)NC(=O)[C@@H]1CCCN1C(=O)[C@H](CO)NC(=O)[C@H](CO)NC(=O)[C@H](Cc1c[nH]cn1)NC(=O)[C@H](CCCNC(=N)N)NC(=O)[C@H](CC(C)C)NC(=O)[C@H](Cc1ccccc1)NC(=O)[C@H](CC(N)=O)NC(=O)[C@H](C)NC(=O)[C@H](CC(C)C)NC(=O)[C@H](CCCNC(=N)N)NC(=O)[C@H](CCC(N)=O)NC(=O)[C@@H](NC(=O)[C@H](C)NC(=O)[C@@H]1CSSC[C@H](NC(=O)[C@@H](N)CCCCNC(=O)CC[C@H](NC(=O)CCCCCCCCCCCCCCC(=O)O)C(=O)O)C(=O)N[C@@H](CC(N)=O)C(=O)N[C@@H]([C@@H](C)O)C(=O)N[C@@H](C)C(=O)N[C@@H]([C@@H](C)O)C(=O)N1)[C@@H](C)O)C(=O)N1CCC[C@H]1C(=O)N[C@@H](CO)C(=O)N[C@@H](CO)C(=O)N[C@H](C(=O)N[C@@H](CC(N)=O)C(=O)N[C@H](C(=O)NCC(=O)N[C@@H](Cc1c[nH]cn1)C(=O)N[C@@H](CC(N)=O)C(=O)N[C@H](C(=O)N[C@@H](Cc1ccc(O)cc1)C(N)=O)[C@@H](C)O)C(C)C)[C@@H](C)O, modifications are with respect to human amylin) [N^ε1-[(4S)-4-carboxy-4-(15-carboxypentadecanoylamino)butanoyl]-[Arg17,Pro21,Pro27,His34]-h-amylin]
